# Experimental data from patent US20260167699A1 (Chugai, published 2026).
# B1: GpH7-A5/GpH7-B3 variant L235_13S/GpL16-k0 (antibody, human IgG1, kappa)
# heavy 1: not shown
# heavy 2: not shown
# light: DIVMTQSPLSLPVTPGEPASISCQASESLVHSNRNTYLHWYLQKPGQSPQLLIYKVSNRFSGVPDRFSGSGSGTDFTLKISRVEAEDVGVYYCSQNTHVPPTFGQGTKVEIERTVAAPSVFIFPPSDEQLKSGTASVVCLLNNFYPREAKVQWKVDNALQSGNSQESVTEQDSKDSTYSLSSTLTLSKADYEKHKVYACEVTHQGLSSPVTKSFNRGEC
# notes: copies: 1 + 1 + 2
# B2: GpH7-A5/GpH7-B3 variant P271_01G/GpL16-k0 (antibody, human IgG1, kappa)
# heavy 1: not shown
# heavy 2: not shown
# light: B1 light
# notes: copies: 1 + 1 + 2
# B3: GpH7-A5/GpH7-B3 variant P271_14T/GpL16-k0 (antibody, human IgG1, kappa)
# heavy 1: not shown
# heavy 2: not shown
# light: B1 light
# notes: copies: 1 + 1 + 2
# B4: GpH7-A5/GpH7-B3 variant P271_06M/GpL16-k0 (antibody, human IgG1, kappa)
# heavy 1: not shown
# heavy 2: not shown
# light: B1 light
# notes: copies: 1 + 1 + 2
# B5: GpH7-A5/GpH7-B3 variant P271_15Y/GpL16-k0 (antibody, human IgG1, kappa)
# heavy 1: not shown
# heavy 2: not shown
# light: B1 light
# notes: copies: 1 + 1 + 2
# B6: GpH7-A5/GpH7-B3 variant P271_03V/GpL16-k0 (antibody, human IgG1, kappa)
# heavy 1: not shown
# heavy 2: not shown
# light: B1 light
# notes: copies: 1 + 1 + 2
# B7: GpH7-A5/GpH7-B3 variant L328_18N/GpL16-k0 (antibody, human IgG1, kappa)
# heavy 1: not shown
# heavy 2: not shown
# light: B1 light
# notes: copies: 1 + 1 + 2
# B8: GpH7-A5/GpH7-B3 variant P271_18N/GpL16-k0 (antibody, human IgG1, kappa)
# heavy 1: not shown
# heavy 2: not shown
# light: B1 light
# notes: copies: 1 + 1 + 2
# B9: GpH7-A5/GpH7-B3 variant N325_13S/GpL16-k0 (antibody, human IgG1, kappa)
# heavy 1: not shown
# heavy 2: not shown
# light: B1 light
# notes: copies: 1 + 1 + 2
# B10: GpH7-A5/GpH7-B3 variant P271_10E/GpL16-k0 (antibody, human IgG1, kappa)
# heavy 1: not shown
# heavy 2: not shown
# light: B1 light
# notes: copies: 1 + 1 + 2
# B11: GpH7-A5/GpH7-B3 variant N325_16H/GpL16-k0 (antibody, human IgG1, kappa)
# heavy 1: not shown
# heavy 2: not shown
# light: B1 light
# notes: copies: 1 + 1 + 2
# B12: GpH7-A5/GpH7-B3 variant P238_10E/GpL16-k0 (antibody, human IgG1, kappa)
# heavy 1: not shown
# heavy 2: not shown
# light: B1 light
# notes: copies: 1 + 1 + 2
# B13: GpH7-A5/GpH7-B3 variant P271_07I/GpL16-k0 (antibody, human IgG1, kappa)
# heavy 1: not shown
# heavy 2: not shown
# light: B1 light
# notes: copies: 1 + 1 + 2
# B14: GpH7-A5/GpH7-B3 variant P271_02A/GpL16-k0 (antibody, human IgG1, kappa)
# heavy 1: not shown
# heavy 2: not shown
# light: B1 light
# notes: copies: 1 + 1 + 2
# B15: GpH7-A5/GpH7-B3 variant P271_08L/GpL16-k0 (antibody, human IgG1, kappa)
# heavy 1: not shown
# heavy 2: not shown
# light: B1 light
# notes: copies: 1 + 1 + 2
# B16: GpH7-A5/GpH7-B3 variant P271_13S/GpL16-k0 (antibody, human IgG1, kappa)
# heavy 1: not shown
# heavy 2: not shown
# light: B1 light
# notes: copies: 1 + 1 + 2
# B17: GpH7-A5/GpH7-B3 variant P271_16H/GpL16-k0 (antibody, human IgG1, kappa)
# heavy 1: not shown
# heavy 2: not shown
# light: B1 light
# notes: copies: 1 + 1 + 2
# B18: GpH7-A5/GpH7-B3 variant L235_19Q/GpL16-k0 (antibody, human IgG1, kappa)
# heavy 1: not shown
# heavy 2: not shown
# light: B1 light
# notes: copies: 1 + 1 + 2
# B19: GpH7-A5/GpH7-B3 variant N325_09D/GpL16-k0 (antibody, human IgG1, kappa)
# heavy 1: not shown
# heavy 2: not shown
# light: B1 light
# notes: copies: 1 + 1 + 2
# B20: GpH7-A5/GpH7-B3 variant L235_18N/GpL16-k0 (antibody, human IgG1, kappa)
# heavy 1: not shown
# heavy 2: not shown
# light: B1 light
# notes: copies: 1 + 1 + 2
# B21: GpH7-A5/GpH7-B3 variant P271_12R/GpL16-k0 (antibody, human IgG1, kappa)
# heavy 1: not shown
# heavy 2: not shown
# light: B1 light
# notes: copies: 1 + 1 + 2
# B22: GpH7-A5/GpH7-B3 variant L328_15Y/GpL16-k0 (antibody, human IgG1, kappa)
# heavy 1: not shown
# heavy 2: not shown
# light: B1 light
# notes: copies: 1 + 1 + 2
# B23: GpH7-A5/GpH7-B3 variant P238_19Q/GpL16-k0 (antibody, human IgG1, kappa)
# heavy 1: not shown
# heavy 2: not shown
# light: B1 light
# notes: copies: 1 + 1 + 2
# B24: GpH7-A5/GpH7-B3 variant L328_03V/GpL16-k0 (antibody, human IgG1, kappa)
# heavy 1: not shown
# heavy 2: not shown
# light: B1 light
# notes: copies: 1 + 1 + 2
# B25: GpH7-A5/GpH7-B3 variant L235_20W/GpL16-k0 (antibody, human IgG1, kappa)
# heavy 1: not shown
# heavy 2: not shown
# light: B1 light
# notes: copies: 1 + 1 + 2
# B26: GpH7-A5/GpH7-B3 variant P238_08L/GpL16-k0 (antibody, human IgG1, kappa)
# heavy 1: not shown
# heavy 2: not shown
# light: B1 light
# notes: copies: 1 + 1 + 2
# B27: GpH7-A5/GpH7-B3 variant L328_19Q/GpL16-k0 (antibody, human IgG1, kappa)
# heavy 1: not shown
# heavy 2: not shown
# light: B1 light
# notes: copies: 1 + 1 + 2
# B28: GpH7-A5/GpH7-B3 variant L328_10E/GpL16-k0 (antibody, human IgG1, kappa)
# heavy 1: not shown
# heavy 2: not shown
# light: B1 light
# notes: copies: 1 + 1 + 2
# B29: GpH7-A5/GpH7-B3 variant L235_14T/GpL16-k0 (antibody, human IgG1, kappa)
# heavy 1: not shown
# heavy 2: not shown
# light: B1 light
# notes: copies: 1 + 1 + 2
# B30: GpH7-A5/GpH7-B3 variant P271_11K/GpL16-k0 (antibody, human IgG1, kappa)
# heavy 1: not shown
# heavy 2: not shown
# light: B1 light
# notes: copies: 1 + 1 + 2
# B31: GpH7-A5/GpH7-B3 variant L328_13S/GpL16-k0 (antibody, human IgG1, kappa)
# heavy 1: not shown
# heavy 2: not shown
# light: B1 light
# notes: copies: 1 + 1 + 2
# B32: GpH7-A5/GpH7-B3 variant P238_09D/GpL16-k0 (antibody, human IgG1, kappa)
# heavy 1: not shown
# heavy 2: not shown
# light: B1 light
# notes: copies: 1 + 1 + 2
# B33: GpH7-A5/GpH7-B3 variant L328_16H/GpL16-k0 (antibody, human IgG1, kappa)
# heavy 1: not shown
# heavy 2: not shown
# light: B1 light
# notes: copies: 1 + 1 + 2
# B34: GpH7-A5/GpH7-B3 variant L328_02A/GpL16-k0 (antibody, human IgG1, kappa)
# heavy 1: not shown
# heavy 2: not shown
# light: B1 light
# notes: copies: 1 + 1 + 2
# B35: GpH7-A5/GpH7-B3 variant L328_04F/GpL16-k0 (antibody, human IgG1, kappa)
# heavy 1: not shown
# heavy 2: not shown
# light: B1 light
# notes: copies: 1 + 1 + 2
# B36: GpH7-A5/GpH7-B3 variant L328_06M/GpL16-k0 (antibody, human IgG1, kappa)
# heavy 1: not shown
# heavy 2: not shown
# light: B1 light
# notes: copies: 1 + 1 + 2
# B37: GpH7-A5/GpH7-B3 variant P271_04F/GpL16-k0 (antibody, human IgG1, kappa)
# heavy 1: not shown
# heavy 2: not shown
# light: B1 light
# notes: copies: 1 + 1 + 2
# B38: GpH7-A5/GpH7-B3 variant L328_07I/GpL16-k0 (antibody, human IgG1, kappa)
# heavy 1: not shown
# heavy 2: not shown
# light: B1 light
# notes: copies: 1 + 1 + 2
# B39: GpH7-A5/GpH7-B3 variant L235_15Y/GpL16-k0 (antibody, human IgG1, kappa)
# heavy 1: not shown
# heavy 2: not shown
# light: B1 light
# notes: copies: 1 + 1 + 2
# B40: GpH7-A5/GpH7-B3 variant P271_09D/GpL16-k0 (antibody, human IgG1, kappa)
# heavy 1: not shown
# heavy 2: not shown
# light: B1 light
# notes: copies: 1 + 1 + 2
# B41: GpH7-A5/GpH7-B3 variant L235_16H/GpL16-k0 (antibody, human IgG1, kappa)
# heavy 1: not shown
# heavy 2: not shown
# light: B1 light
# notes: copies: 1 + 1 + 2
# B42: GpH7-A5/GpH7-B3 variant L328_14T/GpL16-k0 (antibody, human IgG1, kappa)
# heavy 1: not shown
# heavy 2: not shown
# light: B1 light
# notes: copies: 1 + 1 + 2
# B43: GpH7-A5/GpH7-B3 variant P271_19Q/GpL16-k0 (antibody, human IgG1, kappa)
# heavy 1: not shown
# heavy 2: not shown
# light: B1 light
# notes: copies: 1 + 1 + 2
# B44: GpH7-A5/GpH7-B3 variant P238_15Y/GpL16-k0 (antibody, human IgG1, kappa)
# heavy 1: not shown
# heavy 2: not shown
# light: B1 light
# notes: copies: 1 + 1 + 2
# Target: T1, FcγRIIIa (human, UniProt P08637 17-208)
# T1 construct: extracellular domain; also called 3a; FcγRIIIa extracellular domain
# Test: SPR (Biacore);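 also: antibody variants captured on an SPR sensor chip, with FcγRIIIa passed over as analyte in HBS-EP+ buffer at 25 °C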
# T1 sequence (P08637 other isoform, or with tags, fused parts or gaps): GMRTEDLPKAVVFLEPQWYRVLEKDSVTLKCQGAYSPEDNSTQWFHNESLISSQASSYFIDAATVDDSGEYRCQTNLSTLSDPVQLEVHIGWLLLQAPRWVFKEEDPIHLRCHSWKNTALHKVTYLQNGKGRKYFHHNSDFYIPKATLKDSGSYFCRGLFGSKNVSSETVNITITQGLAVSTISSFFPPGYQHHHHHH
row,He/Con 3a,Binder
1,67.2 % of GpH7-A5/GpH7-B3/GpL16-k0,B1
2,119 % of GpH7-A5/GpH7-B3/GpL16-k0,B2
3,59.2 % of GpH7-A5/GpH7-B3/GpL16-k0,B3
4,74 % of GpH7-A5/GpH7-B3/GpL16-k0,B4
5,62.7 % of GpH7-A5/GpH7-B3/GpL16-k0,B5
6,73.5 % of GpH7-A5/GpH7-B3/GpL16-k0,B6
7,51.1 % of GpH7-A5/GpH7-B3/GpL16-k0,B7
8,94 % of GpH7-A5/GpH7-B3/GpL16-k0,B8
9,71.9 % of GpH7-A5/GpH7-B3/GpL16-k0,B9
10,98.2 % of GpH7-A5/GpH7-B3/GpL16-k0,B10
11,68 % of GpH7-A5/GpH7-B3/GpL16-k0,B11
12,98.9 % of GpH7-A5/GpH7-B3/GpL16-k0,B12
13,80.2 % of GpH7-A5/GpH7-B3/GpL16-k0,B13
14,83.7 % of GpH7-A5/GpH7-B3/GpL16-k0,B14
15,74.5 % of GpH7-A5/GpH7-B3/GpL16-k0,B15
16,79.8 % of GpH7-A5/GpH7-B3/GpL16-k0,B16
17,70.3 % of GpH7-A5/GpH7-B3/GpL16-k0,B17
18,68.1 % of GpH7-A5/GpH7-B3/GpL16-k0,B18
19,53 % of GpH7-A5/GpH7-B3/GpL16-k0,B19
20,65 % of GpH7-A5/GpH7-B3/GpL16-k0,B20
21,87.6 % of GpH7-A5/GpH7-B3/GpL16-k0,B21
22,70.2 % of GpH7-A5/GpH7-B3/GpL16-k0,B22

row,He/Con 3a,Binder
1,52.7 % of GpH7-A5/GpH7-B3/GpL16-k0,B23
2,80.9 % of GpH7-A5/GpH7-B3/GpL16-k0,B24
3,73.8 % of GpH7-A5/GpH7-B3/GpL16-k0,B25
4,71.3 % of GpH7-A5/GpH7-B3/GpL16-k0,B26
5,83.4 % of GpH7-A5/GpH7-B3/GpL16-k0,B27
6,54.9 % of GpH7-A5/GpH7-B3/GpL16-k0,B28
7,73.2 % of GpH7-A5/GpH7-B3/GpL16-k0,B29
8,92.5 % of GpH7-A5/GpH7-B3/GpL16-k0,B30
9,73.7 % of GpH7-A5/GpH7-B3/GpL16-k0,B31
10,100 % of GpH7-A5/GpH7-B3/GpL16-k0,B32
11,55.9 % of GpH7-A5/GpH7-B3/GpL16-k0,B33
12,81.3 % of GpH7-A5/GpH7-B3/GpL16-k0,B34
13,81.5 % of GpH7-A5/GpH7-B3/GpL16-k0,B35
14,80.8 % of GpH7-A5/GpH7-B3/GpL16-k0,B36
15,65.6 % of GpH7-A5/GpH7-B3/GpL16-k0,B37
16,86.4 % of GpH7-A5/GpH7-B3/GpL16-k0,B38
17,77.8 % of GpH7-A5/GpH7-B3/GpL16-k0,B39
18,97.7 % of GpH7-A5/GpH7-B3/GpL16-k0,B40
19,57.1 % of GpH7-A5/GpH7-B3/GpL16-k0,B41
20,77.4 % of GpH7-A5/GpH7-B3/GpL16-k0,B42
21,84.6 % of GpH7-A5/GpH7-B3/GpL16-k0,B43
22,61 % of GpH7-A5/GpH7-B3/GpL16-k0,B44
